Holding throughout (assay): intrinsic tryptophan fluorescence quenching
The target of data set [1] is T1, MAD33 (UniProt Q9TTA5).
T1 sequence (Q9TTA5 whole entry, looked up): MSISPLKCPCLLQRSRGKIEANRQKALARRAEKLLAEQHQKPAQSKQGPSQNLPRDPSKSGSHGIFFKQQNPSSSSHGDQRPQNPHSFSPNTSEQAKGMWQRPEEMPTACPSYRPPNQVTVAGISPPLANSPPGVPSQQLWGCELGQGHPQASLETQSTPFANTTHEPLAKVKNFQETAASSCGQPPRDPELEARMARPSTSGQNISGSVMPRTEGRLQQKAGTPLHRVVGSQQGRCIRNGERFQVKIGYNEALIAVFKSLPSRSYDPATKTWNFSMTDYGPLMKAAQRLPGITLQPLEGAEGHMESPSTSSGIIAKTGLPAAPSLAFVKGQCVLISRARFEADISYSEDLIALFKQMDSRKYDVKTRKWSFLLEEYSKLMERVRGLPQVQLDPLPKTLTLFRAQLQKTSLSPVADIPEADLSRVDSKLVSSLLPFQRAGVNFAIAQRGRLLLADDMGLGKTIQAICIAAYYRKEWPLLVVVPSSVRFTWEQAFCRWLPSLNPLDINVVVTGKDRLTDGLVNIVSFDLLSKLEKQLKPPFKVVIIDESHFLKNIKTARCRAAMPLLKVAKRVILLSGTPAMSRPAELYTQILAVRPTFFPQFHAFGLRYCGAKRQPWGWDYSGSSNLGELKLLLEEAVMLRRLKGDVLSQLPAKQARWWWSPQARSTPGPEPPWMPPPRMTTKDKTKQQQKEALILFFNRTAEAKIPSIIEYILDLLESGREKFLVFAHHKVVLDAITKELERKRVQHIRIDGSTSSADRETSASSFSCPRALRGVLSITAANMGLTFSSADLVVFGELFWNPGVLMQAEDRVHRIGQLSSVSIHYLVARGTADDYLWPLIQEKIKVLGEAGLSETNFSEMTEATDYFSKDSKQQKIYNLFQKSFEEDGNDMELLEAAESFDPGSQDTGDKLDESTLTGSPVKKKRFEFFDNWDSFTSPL
The note with it: Fluorescence at 25 C (Cary-Varian spectrofluorimeter); buffer, salt and pH not given (as in ref 13).

Data set [2] concerns the target T2, MAD8 (UniProt Q9TTA5).
T2 sequence (Q9TTA5 whole entry, looked up): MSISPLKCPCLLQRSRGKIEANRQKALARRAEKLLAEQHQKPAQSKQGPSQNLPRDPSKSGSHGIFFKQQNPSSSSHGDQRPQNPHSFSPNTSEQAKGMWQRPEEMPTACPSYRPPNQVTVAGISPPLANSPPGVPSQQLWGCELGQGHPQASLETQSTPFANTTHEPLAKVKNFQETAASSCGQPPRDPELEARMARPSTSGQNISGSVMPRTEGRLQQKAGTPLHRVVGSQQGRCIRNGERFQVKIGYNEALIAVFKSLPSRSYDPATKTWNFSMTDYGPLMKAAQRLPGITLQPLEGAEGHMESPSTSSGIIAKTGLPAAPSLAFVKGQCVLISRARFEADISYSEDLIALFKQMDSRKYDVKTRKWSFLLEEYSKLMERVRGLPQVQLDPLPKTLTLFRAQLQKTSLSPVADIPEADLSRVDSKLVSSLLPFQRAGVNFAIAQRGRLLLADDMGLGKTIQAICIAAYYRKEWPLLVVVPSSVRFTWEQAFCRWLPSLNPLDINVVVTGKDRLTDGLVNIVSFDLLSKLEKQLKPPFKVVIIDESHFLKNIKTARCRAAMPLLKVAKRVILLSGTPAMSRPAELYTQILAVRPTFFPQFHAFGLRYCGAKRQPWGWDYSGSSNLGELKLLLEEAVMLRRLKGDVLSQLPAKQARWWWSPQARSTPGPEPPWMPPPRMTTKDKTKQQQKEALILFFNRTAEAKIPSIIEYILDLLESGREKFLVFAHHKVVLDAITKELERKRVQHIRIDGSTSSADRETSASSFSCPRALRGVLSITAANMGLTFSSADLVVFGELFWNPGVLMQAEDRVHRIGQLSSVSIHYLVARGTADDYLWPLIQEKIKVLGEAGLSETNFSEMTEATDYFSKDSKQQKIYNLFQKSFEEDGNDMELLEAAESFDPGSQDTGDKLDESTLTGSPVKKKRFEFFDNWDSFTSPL
As to conditions: Fluorescence at 25 C (Cary-Varian spectrofluorimeter); buffer, salt and pH not given (as in ref 13).

Data set [3] concerns the target T3, MAD47 (UniProt Q9TTA5).
T3 sequence (Q9TTA5 whole entry, looked up): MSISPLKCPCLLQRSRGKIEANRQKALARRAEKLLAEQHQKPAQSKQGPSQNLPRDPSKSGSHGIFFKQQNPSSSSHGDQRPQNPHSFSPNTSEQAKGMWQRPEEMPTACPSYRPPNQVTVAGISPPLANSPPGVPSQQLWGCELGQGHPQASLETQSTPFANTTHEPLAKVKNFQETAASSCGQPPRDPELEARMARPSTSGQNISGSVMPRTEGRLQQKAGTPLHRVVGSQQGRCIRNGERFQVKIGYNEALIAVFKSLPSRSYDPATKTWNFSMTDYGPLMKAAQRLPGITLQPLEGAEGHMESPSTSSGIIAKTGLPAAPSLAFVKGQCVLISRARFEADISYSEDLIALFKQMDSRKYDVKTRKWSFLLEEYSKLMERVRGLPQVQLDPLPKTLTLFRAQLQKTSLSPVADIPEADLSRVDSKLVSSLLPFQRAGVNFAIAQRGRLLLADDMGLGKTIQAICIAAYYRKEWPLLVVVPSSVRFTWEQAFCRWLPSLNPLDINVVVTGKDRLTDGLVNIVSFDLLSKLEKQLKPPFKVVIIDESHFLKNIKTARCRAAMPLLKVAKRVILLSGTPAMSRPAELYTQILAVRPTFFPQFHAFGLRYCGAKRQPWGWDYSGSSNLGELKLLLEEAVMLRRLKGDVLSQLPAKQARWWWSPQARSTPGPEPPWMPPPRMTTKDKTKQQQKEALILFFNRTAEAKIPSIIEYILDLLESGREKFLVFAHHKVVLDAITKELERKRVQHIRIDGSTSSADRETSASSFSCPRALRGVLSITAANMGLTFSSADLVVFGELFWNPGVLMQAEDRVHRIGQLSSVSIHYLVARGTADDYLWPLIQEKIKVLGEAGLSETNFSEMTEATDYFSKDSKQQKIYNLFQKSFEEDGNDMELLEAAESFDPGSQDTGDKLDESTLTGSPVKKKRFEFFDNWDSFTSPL
As to conditions: Fluorescence at 25 C (Cary-Varian spectrofluorimeter); buffer, salt and pH not given (as in ref 13).

Data set [4] addresses T4, His-ADAAD (Active DNA-dependent ATPase A Domain) (UniProt Q9TTA5).
T4 sequence (Q9TTA5 whole entry, looked up): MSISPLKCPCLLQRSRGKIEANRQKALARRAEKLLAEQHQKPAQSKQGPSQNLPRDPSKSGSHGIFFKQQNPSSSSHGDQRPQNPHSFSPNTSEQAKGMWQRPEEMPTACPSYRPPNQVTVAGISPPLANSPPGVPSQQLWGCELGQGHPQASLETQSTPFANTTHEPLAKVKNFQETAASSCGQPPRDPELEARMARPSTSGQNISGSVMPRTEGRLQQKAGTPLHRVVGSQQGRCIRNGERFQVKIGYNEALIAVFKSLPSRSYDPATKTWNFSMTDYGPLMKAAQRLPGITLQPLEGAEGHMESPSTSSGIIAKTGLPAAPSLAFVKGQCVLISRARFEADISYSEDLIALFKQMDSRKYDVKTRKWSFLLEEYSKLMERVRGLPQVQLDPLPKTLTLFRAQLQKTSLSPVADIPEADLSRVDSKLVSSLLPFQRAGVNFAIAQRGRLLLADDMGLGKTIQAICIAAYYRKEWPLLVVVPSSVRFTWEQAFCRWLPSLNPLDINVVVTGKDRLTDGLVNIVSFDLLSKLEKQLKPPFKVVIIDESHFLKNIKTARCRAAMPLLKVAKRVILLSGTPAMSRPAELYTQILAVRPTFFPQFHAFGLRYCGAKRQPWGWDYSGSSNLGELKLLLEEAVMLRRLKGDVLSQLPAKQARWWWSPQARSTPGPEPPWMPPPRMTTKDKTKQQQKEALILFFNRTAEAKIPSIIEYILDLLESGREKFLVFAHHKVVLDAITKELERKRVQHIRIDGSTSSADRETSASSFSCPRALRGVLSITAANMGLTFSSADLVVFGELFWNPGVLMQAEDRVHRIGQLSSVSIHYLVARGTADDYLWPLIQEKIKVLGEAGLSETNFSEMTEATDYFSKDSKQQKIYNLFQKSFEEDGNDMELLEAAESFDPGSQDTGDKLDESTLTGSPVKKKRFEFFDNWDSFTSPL
As to conditions: Fluorescence at 25 C (Cary-Varian spectrofluorimeter), buffer, salt and pH not given (as in ref 13).

Data set [5] deals with T5, MAD28 (UniProt Q9TTA5).
T5 sequence (Q9TTA5 whole entry, looked up): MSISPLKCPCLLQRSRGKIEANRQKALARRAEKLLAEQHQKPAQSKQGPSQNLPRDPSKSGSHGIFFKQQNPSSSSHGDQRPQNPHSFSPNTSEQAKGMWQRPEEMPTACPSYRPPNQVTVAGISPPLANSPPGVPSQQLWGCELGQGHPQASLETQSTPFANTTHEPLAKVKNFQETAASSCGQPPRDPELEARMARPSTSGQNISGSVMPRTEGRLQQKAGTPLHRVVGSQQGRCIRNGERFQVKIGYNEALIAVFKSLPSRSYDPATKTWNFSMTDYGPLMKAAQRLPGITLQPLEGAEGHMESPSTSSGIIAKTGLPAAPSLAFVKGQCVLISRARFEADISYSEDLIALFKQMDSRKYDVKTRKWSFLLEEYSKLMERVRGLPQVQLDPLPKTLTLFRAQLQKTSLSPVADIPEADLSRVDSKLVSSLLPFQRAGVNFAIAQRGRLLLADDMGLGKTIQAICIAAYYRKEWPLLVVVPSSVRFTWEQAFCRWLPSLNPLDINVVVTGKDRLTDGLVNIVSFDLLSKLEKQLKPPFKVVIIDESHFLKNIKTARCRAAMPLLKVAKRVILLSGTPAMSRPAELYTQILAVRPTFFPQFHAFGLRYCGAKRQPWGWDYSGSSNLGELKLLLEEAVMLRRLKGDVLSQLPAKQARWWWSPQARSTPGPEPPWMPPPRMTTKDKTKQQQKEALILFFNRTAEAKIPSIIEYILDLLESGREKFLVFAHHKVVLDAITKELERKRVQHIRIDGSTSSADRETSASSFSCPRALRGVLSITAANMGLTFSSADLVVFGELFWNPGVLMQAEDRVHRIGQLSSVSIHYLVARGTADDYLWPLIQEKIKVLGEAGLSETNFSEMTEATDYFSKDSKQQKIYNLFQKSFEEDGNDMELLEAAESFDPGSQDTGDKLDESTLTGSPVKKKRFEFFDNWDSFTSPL
As to conditions: Fluorescence at 25 C (Cary-Varian spectrofluorimeter); buffer, salt and pH not given (as in ref 13).

Data set [6] deals with T6, MAD53 (UniProt Q9TTA5).
T6 sequence (Q9TTA5 whole entry, looked up): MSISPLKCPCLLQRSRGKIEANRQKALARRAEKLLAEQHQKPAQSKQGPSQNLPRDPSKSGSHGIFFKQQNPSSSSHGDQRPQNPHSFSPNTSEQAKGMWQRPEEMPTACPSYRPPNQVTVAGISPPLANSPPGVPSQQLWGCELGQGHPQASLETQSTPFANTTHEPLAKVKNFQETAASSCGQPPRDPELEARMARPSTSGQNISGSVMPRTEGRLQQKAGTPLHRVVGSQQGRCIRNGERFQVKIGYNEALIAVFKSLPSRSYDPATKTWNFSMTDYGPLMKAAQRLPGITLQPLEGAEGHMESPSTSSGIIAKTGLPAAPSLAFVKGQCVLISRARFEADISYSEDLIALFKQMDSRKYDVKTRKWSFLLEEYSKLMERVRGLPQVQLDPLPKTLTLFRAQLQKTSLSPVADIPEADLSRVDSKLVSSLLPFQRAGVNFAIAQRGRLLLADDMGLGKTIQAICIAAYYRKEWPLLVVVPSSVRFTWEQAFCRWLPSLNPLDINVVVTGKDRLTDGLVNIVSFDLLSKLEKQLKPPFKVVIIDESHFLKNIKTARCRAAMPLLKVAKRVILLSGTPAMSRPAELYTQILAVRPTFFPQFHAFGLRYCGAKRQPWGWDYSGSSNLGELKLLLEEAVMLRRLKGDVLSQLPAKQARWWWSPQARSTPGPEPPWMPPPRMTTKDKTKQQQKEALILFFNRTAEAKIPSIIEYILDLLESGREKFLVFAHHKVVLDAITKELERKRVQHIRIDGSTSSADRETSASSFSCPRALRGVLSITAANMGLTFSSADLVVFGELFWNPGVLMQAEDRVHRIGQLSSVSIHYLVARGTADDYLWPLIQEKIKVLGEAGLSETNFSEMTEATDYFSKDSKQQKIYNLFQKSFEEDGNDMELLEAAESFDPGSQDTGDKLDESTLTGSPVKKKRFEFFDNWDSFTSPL
As to conditions: Fluorescence at 25 C (Cary-Varian spectrofluorimeter); buffer, salt and pH not given (as in ref 13).

Here are results for one sequence from PMC3509132, “Global Epigenetic Changes Induced by SWI2/SNF2 Inhibitors Characterize Neomycin-Resistant Mammalian Cells” (PLoS ONE, 2012).

Consider “GCGCAATTGCGCTCGACGATTTTTTAGCGCAATTGCGC [slDNA (stem-loop DNA)]”, for which the dissociation constant (Kd) – broadly, the free concentration of one partner at which half of the binding sites on the other are occupied at equilibrium, for simple one-to-one binding – in data set [1] was found to be 41.5 nM; in data set [2] it was 8.7 nM; in data set [3], 6.5 nM; in data set [4] (2 uM ADAADiK), 0.46 nM; in data set [4] (2 uM ADAADiN (saturating inhibitor)) it was 0.63 nM; in data set [5] it was 22.1 nM. In addition, in data set [6], the Kd stood at 8.2 nM.
